± gives the uncertainty stated by the source.
B1: Ankyrin repeat and SAM domain-containing protein 6, residues 774 to 836; numbered along this chain, Q68DC2 (parent)
chain: DEDELTGILKKLSLEKYQPIFEEQEVDMEAFLTLTDGDLKELGIKTDGSRQQILAAISELNAG

Variants of: B1
Assay: abundance fitness (aPCA) (normalised: wild type 0, dead -1); higher = more abundant; growth selection in yeast, the domain comes from the species named
Conditions: Homo sapiens

DEDELTGILKKLSLEKYQPIFEEQEVDMEAFLTLTDGDLKELGFKTDGSRQQILAAISELNAG [I44F] and DEDELTGILKKLSLEKYQPIFEEQEVDMEAFLTLTDGDLKELGMKTDGSRQQILAAISELNAG [I44M] are within error of each other in abundance fitness: -0.144 ± 0.065 for the first, -0.253 ± 0.058 for the second.

DEDELTGILKKLSLEKYQPIFEEQEVDMEAFLTLTDGDLKELGGKTDGSRQQILAAISELNAG [I44G] and DEDELTGILKKLSLEKYQPIFEEQEVDMEAFLTLTDGDLKELGYKTDGSRQQILAAISELNAG [I44Y] are within error of each other in abundance fitness: -0.592 ± 0.073 for the first, -0.766 ± 0.15 for the second.

DEDELTGILKKLSLEKYQPIFEEQEVDMEAFLTLTDGDLKELGNKTDGSRQQILAAISELNAG [I44N] and DEDELTGILKKLSLEKYQPIFEEQEVDMEAFLTLTDGDLKELGAKTDGSRQQILAAISELNAG [I44A] are within error of each other in abundance fitness: -0.645 ± 0.095 for the first, -0.574 ± 0.055 for the second.

DEDELTGILKKLSLEKYQPIFEEQEVDMEAFLTLTDGDLKELGWKTDGSRQQILAAISELNAG [I44W] and DEDELTGILKKLSLEKYQPIFEEQEVDMEAFLTLTDGDLKELGPKTDGSRQQILAAISELNAG [I44P] are within error of each other in abundance fitness: -0.654 ± 0.061 for the first, -0.746 ± 0.09 for the second.

First: DEDELTGILKKLSLEKYQPIFEEQEVDMEAFLTLTDGDLKELGRKTDGSRQQILAAISELNAG [I44R]
Second: DEDELTGILKKLSLEKYQPIFEEQEVDMEAFLTLTDGDLKELGVKTDGSRQQILAAISELNAG [I44V]
The abundance fitness of the first is lower: -0.676 ± 0.057 for the first, 0.037 ± 0.047 for the second.

Compared with DEDELTGILKKLSLEKYQPIFEEQEVDMEAFLTLTDGDLKELGCKTDGSRQQILAAISELNAG [I44C], DEDELTGILKKLSLEKYQPIFEEQEVDMEAFLTLTDGDLKELGHKTDGSRQQILAAISELNAG [I44H] is lower in abundance fitness: -0.458 ± 0.061 for the first, -0.806 ± 0.13 for the second.

DEDELTGILKKLSLEKYQPIFEEQEVDMEAFLTLTDGDLKELGQKTDGSRQQILAAISELNAG [I44Q] and DEDELTGILKKLSLEKYQPIFEEQEVDMEAFLTLTDGDLKELGSKTDGSRQQILAAISELNAG [I44S] are within error of each other in abundance fitness: -0.643 ± 0.086 for the first, -0.651 ± 0.05 for the second.

Going from DEDELTGILKKLSLEKYQPIFEEQEVDMEAFLTLTDGDLKELGEKTDGSRQQILAAISELNAG [I44E] to DEDELTGILKKLSLEKYQPIFEEQEVDMEAFLTLTDGDLTELGIKTDGSRQQILAAISELNAG [K40T], the abundance fitness rises from -0.586 ± 0.073 to -0.138 ± 0.068.

Compared with DEDELTGILKKLSLEKYQPIFEEQEVDMEAFLTLTDGDLVELGIKTDGSRQQILAAISELNAG [K40V], DEDELTGILKKLSLEKYQPIFEEQEVDMEAFLTLTDGDLWELGIKTDGSRQQILAAISELNAG [K40W] is lower in abundance fitness: 0.044 ± 0.05 for the first, -0.263 ± 0.046 for the second.

DEDELTGILKKLSLEKYQPIFEEQEVDMEAFLTLTDGDLSELGIKTDGSRQQILAAISELNAG [K40S] and DEDELTGILKKLSLEKYQPIFEEQEVDMEAFLTLTDGDLYELGIKTDGSRQQILAAISELNAG [K40Y] are within error of each other in abundance fitness: -0.096 ± 0.052 for the first, -0.115 ± 0.061 for the second.

DEDELTGILKKLSLEKYQPIFEEQEVDMEAFLTLTDGDLNELGIKTDGSRQQILAAISELNAG [K40N] and DEDELTGILKKLSLEKYQPIFEEQEVDMEAFLTLTDGDLQELGIKTDGSRQQILAAISELNAG [K40Q] are within error of each other in abundance fitness: -0.146 ± 0.1 for the first, -0.142 ± 0.096 for the second.

Going from DEDELTGILKKLSLEKYQPIFEEQEVDMEAFLTLTDGDLLELGIKTDGSRQQILAAISELNAG [K40L] to DEDELTGILKKLSLEKYQPIFEEQEVDMEAFLTLTDGDLHELGIKTDGSRQQILAAISELNAG [K40H], the abundance fitness falls from -0.036 ± 0.037 to -0.286 ± 0.074.

Compared with DEDELTGILKKLSLEKYQPIFEEQEVDMEAFLTLTDGDLGELGIKTDGSRQQILAAISELNAG [K40G], DEDELTGILKKLSLEKYQPIFEEQEVDMEAFLTLTDGDLPELGIKTDGSRQQILAAISELNAG [K40P] is lower in abundance fitness: -0.31 ± 0.057 for the first, -0.67 ± 0.049 for the second.

DEDELTGILKKLSLEKYQPIFEEQEVDMEAFLTLTDGDLKELGICTDGSRQQILAAISELNAG [K45C] and DEDELTGILKKLSLEKYQPIFEEQEVDMEAFLTLTDGDLKELGIQTDGSRQQILAAISELNAG [K45Q] are within error of each other in abundance fitness: -0.191 ± 0.053 for the first, -0.151 ± 0.078 for the second.

DEDELTGILKKLSLEKYQPIFEEQEVDMEAFLTLTDGDLKELGIMTDGSRQQILAAISELNAG [K45M] and DEDELTGILKKLSLEKYQPIFEEQEVDMEAFLTLTDGDLKELGIFTDGSRQQILAAISELNAG [K45F] are within error of each other in abundance fitness: 0.008 ± 0.1 for the first, -0.143 ± 0.11 for the second.

Going from DEDELTGILKKLSLEKYQPIFEEQEVDMEAFLTLTDGDLKELGIGTDGSRQQILAAISELNAG [K45G] to DEDELTGILKKLSLEKYQPIFEEQEVDMEAFLTLTDGDLKELGIVTDGSRQQILAAISELNAG [K45V], the abundance fitness falls from -0.114 ± 0.049 to -0.225 ± 0.05.

DEDELTGILKKLSLEKYQPIFEEQEVDMEAFLTLTDGDLKELGIPTDGSRQQILAAISELNAG [K45P] and DEDELTGILKKLSLEKYQPIFEEQEVDMEAFLTLTDGDLKELGIATDGSRQQILAAISELNAG [K45A] are within error of each other in abundance fitness: -0.044 ± 0.053 for the first, -0.055 ± 0.047 for the second.

DEDELTGILKKLSLEKYQPIFEEQEVDMEAFLTLTDGDLKELGIDTDGSRQQILAAISELNAG [K45D] and DEDELTGILKKLSLEKYQPIFEEQEVDMEAFLTLTDGDLKELGITTDGSRQQILAAISELNAG [K45T] are within error of each other in abundance fitness: 0.079 ± 0.05 for the first, -0.02 ± 0.057 for the second.

Compared with DEDELTGILKKLSLEKYQPIFEEQEVDMEAFLTLTDGDLKELGIYTDGSRQQILAAISELNAG [K45Y], DEDELTGILKKLSLEKYQPIFEEQEVDMEAFLTLTDGDLKELGIHTDGSRQQILAAISELNAG [K45H] is higher in abundance fitness: -0.233 ± 0.063 for the first, -0.076 ± 0.076 for the second.

Going from DEDELTGILKKLSLEKYQPIFEEQEVDMEAFLTLTDGDLKELGIITDGSRQQILAAISELNAG [K45I] to DEDELTGILKKLSLEKYQPIFEEQEVDMEAFLTLTDGDLKELGILTDGSRQQILAAISELNAG [K45L], the abundance fitness rises from -0.348 ± 0.091 to -0.066 ± 0.045.

DEDELTGILKKLSLEKYQPIFEEQEVDMEAFLTLTDGDLKELGINTDGSRQQILAAISELNAG [K45N] and DEDELTGILKKLSLEKYQPIFEEQEVDMEAFLTLTDGDLKELGIETDGSRQQILAAISELNAG [K45E] are within error of each other in abundance fitness: -0.079 ± 0.072 for the first, 0.013 ± 0.079 for the second.

Work on DEDELTGILKKLSLEKYQPIFEEQEVDMEAFLTLTDGDLKELGIRTDGSRQQILAAISELNAG [K45R] yielded an abundance fitness of -0.027 ± 0.041.

Source: the Human Domainome abundance scans (Beltran et al. 2025)
